Data from PMC3542269.

Target: clathrin (human (endogenous in PC-3)) (UniProt Q00610)
Test: co-IP; PC-3 lysate (50 mM HEPES pH 5.5, 1 mM EDTA, 150 mM NaCl, 1% Triton X-100); anti-clathrin (1 µg) or anti β-actin (5 µg) antibody overnight at 4°C, Protein A Sepharose; profilin 1 detected by Western blot; cells treated 24 h with 10 µM AMS-36 (cathepsin X inhibitor) or DMSO

Sequence of profilin 1 (P07737 whole entry): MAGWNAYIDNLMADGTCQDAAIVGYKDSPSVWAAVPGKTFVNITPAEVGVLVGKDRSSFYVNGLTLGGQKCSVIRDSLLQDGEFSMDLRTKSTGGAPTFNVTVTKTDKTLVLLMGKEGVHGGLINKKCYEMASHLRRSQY
Sequence of UniProt Q00610 (Q00610 whole entry): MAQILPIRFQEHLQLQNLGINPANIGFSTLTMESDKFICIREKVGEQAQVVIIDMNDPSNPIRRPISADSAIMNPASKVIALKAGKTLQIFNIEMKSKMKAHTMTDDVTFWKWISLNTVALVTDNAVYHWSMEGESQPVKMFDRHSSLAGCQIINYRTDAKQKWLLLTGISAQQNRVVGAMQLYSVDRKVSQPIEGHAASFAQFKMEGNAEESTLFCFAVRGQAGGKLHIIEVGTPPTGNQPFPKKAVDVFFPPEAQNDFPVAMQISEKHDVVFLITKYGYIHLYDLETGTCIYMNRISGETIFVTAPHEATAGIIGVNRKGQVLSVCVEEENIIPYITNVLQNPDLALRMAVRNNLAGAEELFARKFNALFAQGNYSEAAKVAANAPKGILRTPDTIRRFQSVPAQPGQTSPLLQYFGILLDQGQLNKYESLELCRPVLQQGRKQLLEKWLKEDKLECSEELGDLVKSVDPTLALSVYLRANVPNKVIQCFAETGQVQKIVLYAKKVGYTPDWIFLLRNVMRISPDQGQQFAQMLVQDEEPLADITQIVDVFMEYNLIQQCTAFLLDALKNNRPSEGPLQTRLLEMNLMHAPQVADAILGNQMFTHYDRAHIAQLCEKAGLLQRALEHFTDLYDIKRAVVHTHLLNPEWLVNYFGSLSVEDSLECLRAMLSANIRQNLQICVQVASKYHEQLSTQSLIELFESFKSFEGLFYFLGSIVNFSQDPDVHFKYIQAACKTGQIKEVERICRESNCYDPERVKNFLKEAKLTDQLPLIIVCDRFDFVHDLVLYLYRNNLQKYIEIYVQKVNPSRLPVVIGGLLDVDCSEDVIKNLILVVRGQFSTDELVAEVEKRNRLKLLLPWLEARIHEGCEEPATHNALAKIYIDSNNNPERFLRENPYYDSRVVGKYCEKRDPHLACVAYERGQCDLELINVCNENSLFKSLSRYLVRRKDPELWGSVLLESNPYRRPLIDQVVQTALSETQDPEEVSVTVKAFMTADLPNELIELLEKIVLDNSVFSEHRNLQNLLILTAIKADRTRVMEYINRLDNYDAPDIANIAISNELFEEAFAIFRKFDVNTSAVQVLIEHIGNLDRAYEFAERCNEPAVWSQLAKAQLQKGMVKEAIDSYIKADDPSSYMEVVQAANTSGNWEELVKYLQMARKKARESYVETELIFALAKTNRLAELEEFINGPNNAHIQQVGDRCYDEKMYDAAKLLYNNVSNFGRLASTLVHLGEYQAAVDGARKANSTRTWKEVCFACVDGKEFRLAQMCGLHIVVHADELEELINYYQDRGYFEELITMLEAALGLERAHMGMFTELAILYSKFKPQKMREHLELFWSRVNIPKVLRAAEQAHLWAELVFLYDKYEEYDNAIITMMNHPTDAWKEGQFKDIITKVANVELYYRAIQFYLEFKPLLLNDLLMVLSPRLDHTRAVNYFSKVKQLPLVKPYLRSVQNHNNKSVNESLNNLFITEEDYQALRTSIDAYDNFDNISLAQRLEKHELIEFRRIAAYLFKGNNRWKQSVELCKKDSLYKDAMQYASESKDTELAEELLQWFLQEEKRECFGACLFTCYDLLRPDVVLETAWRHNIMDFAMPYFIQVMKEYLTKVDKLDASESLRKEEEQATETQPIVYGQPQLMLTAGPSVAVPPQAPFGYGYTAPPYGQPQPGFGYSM

more profilin 1 co-precipitated with clathrin from AMS-36-treated than from DMSO-treated cells: 44%
Substance: profilin 1 (from UniProt P07737 1-140) (natural protein)
